From publication PMC8316464, “Structures of the ApoL1 and ApoL2 N-terminal domains reveal a non-classical four-helix bundle motif” (Communications Biology, 2021)

T1: ApoL1-peptide (BH3-like peptide E152–H169) (human, UniProt O14791)
T1 construct: Apolipoprotein L1, human, residues E152-H169; also called ApoL1-BH3 peptide; BH3 peptide; source: synthetic peptide (NEO Scientific)
T1 chain: EDNIRRLRALADGVQKVH

T2: Bcl-w (human, UniProt Q92843 1-193)
T2 construct: Bcl-w, human recombinant; source: bought: R&D Systems
T2 sequence (looked up): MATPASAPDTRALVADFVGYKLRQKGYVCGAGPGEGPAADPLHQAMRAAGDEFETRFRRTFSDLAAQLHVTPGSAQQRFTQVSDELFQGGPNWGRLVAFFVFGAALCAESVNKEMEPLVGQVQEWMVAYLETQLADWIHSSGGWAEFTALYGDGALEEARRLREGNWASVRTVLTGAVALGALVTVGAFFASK

T3: Bfl-1 (human, UniProt Q16548 1-175)
T3 construct: Bfl-1 (Bcl-2-related protein A1), human recombinant; also called Bcl-2-related protein A1; source: bought: R&D Systems
T3 sequence (looked up): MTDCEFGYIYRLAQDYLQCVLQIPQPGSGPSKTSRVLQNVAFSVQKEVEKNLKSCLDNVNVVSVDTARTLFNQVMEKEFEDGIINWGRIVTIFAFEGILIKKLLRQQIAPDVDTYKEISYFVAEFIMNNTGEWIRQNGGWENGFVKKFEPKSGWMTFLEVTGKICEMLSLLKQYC

B1: Ab3B6 (antibody, V domains shown)
VH: QVQLQQSGAELARPGASVKLSCKASGYTFTSHWMQWLKQRPGQGLEWIGAIYPGDGDTKFTQKFKDKATLTADKSSTTAYMQLSSLASEDSAVYYCARENLYGYYFDYWGQGTTLTVSS
VL: QAVVTQESALTTSPGETVTLTCRSSTGAVTSGNFANWVQEKPDHLFTGLIGGADNRAPGVPARFSGSLIGDKAALIITGAQTEDEAIYFCALWYSDHWVFGGGTKLTVL
notes: mouse VH, as the variable part of the heavy chain of m2; mouse heavy chain constant region; mouse VL, as the variable part of the light chain of m2; mouse light chain constant region; Mouse anti-human ApoL1 antibody; also called 3.3B6
B2: Fab7D6 (Fab, V domains shown)
VH: QIQLVQSGPDLKKPGETVKISCRTSGYAFTNYGVNWVKQAPGKGLKWMGWINTNTGQTTYAEEFRGRFAISLETSASTAFLTISNLKNEDSATYFCARLIYDGDYISSDFWGQGTTLTVSS
VL: DIQMTQSPDSLSASVGETVTITCGASENIYGALNWYQRKQGKSPQLLIYGATNLADGMSSRFSGSRSGRQYSLKISSLHPDDVATYYCQNALSMPYTFGGGTNLETK
notes: Chimeric Fab: mouse variable domains on human constant domains; also called Fab of Ab7D6; 3.7D6 Fab; source: E. coli strain 64B4, secreted into the periplasm, purified (protein G, SP Sepharose, Superdex 75)
B3: Ab7D6 (antibody, V domains shown)
VH: B2 VH
VL: B2 VL
notes: mouse VH, as the variable part of the heavy chain of m3; mouse heavy chain constant region; mouse VL, as the variable part of the light chain of m3; mouse light chain constant region; Mouse anti-human ApoL1 antibody; also called 3.7D6
B4: Bid BH3 peptide (25-mer, residues 77-101) (peptide)
peptide: ESQEDIIRNIARHLAQVGDSMDRSI
notes: Bid, BH3-only motif, residues 77-101; source: synthetic peptide (ABclonal, >95% purity)
B5: Bid (A87I) peptide (peptide)
peptide: ESQEDIIRNIIRHLAQVGDSMDRSI
notes: source: synthetic peptide (ABclonal, >95% purity)
B6: Bim (A149I) peptide (peptide)
peptide: DMRPEIWIIQELRRIGDEFNAYYAR
notes: also called Bim (A149A) (as printed in the methods); source: synthetic peptide (ABclonal, >95% purity)
B7: Ab6D12 (antibody, V domains shown)
VH: EVMLVESGGGLVRPGGSLKLSCTASGFTFSRCAMSWVRQTPEKRLEWVSAISRDSTYTYYSDSVKGRFTVSRDNAKNTLYLQMSSLRSEDTAMYYCARQIDDYYVDALDYWGQGTSVTVSS
VL: DVQITQSPSYLAASPGETITINCRASKIISKYLAWYQEKPGKTIKLLIYSGFTLQSGIPSRFSGSGSGTDFTLTISSLEPEDFAMYYCQQHNEYPLTFGAGTKLEIK
notes: mouse VH, as the variable part of the heavy chain of m1; mouse heavy chain constant region; mouse VL, as the variable part of the light chain of m1; mouse light chain constant region; Mouse anti-human ApoL1 antibody; also called 3.6D12; murine Ab6D12
B8: Fab6D12 (Fab, V domains shown)
VH: B7 VH
VL: B7 VL
notes: Chimeric Fab: mouse variable domains on human constant domains; also called Fab of Ab6D12; 3.6D12 Fab; source: E. coli strain 64B4, secreted into the periplasm, purified (protein G, SP Sepharose, Superdex 75)

Assays:
[1] = molecular target: T4, full-length ApoL1 with N-terminal flag-tag (human, UniProt O14791-1); assay: SPR; Biacore T200; anti-ApoL1 antibodies captured (~250 RU) by anti-murine Fc antibody on a CM5 chip; ApoL1 0.8–500 nM injected in HBS-P (10 mM HEPES pH 7.4, 150 mM NaCl, 0.005% P20) at 37 °C, 100 µl/min; 1:1 Langmuir model; KD = koff/kon; conditions: both partners purified
T4 construct: also called Apolipoprotein L1; not shown: FLAG, N-terminal, kept

[2] = molecular target: T5, human untagged ApoL2 expressed in COS7 cells (Homo sapiens, UniProt Q9BQE5); assay: immunoprecipitation; 20 µg antibody pre-immobilised on Dynabeads Protein G, incubated 20 min at RT with M-PER lysates of cells expressing ApoL1-6 (35 µg total protein for ApoL1-3, 500 µg for ApoL4-6); four washes PBS/0.02% Tween-20; blot with anti-ApoL1/2 or anti-Myc; conditions: one partner purified
T5 construct: Apolipoprotein L2, human, untagged; source: COS7, transiently transfected; in lysate (immunoprecipitation) or in fixed, permeabilized cells (immunofluorescence)

ApoL3-Myc-Flag = molecular target: T6, ApoL3-Myc-Flag (Homo sapiens, UniProt O95236); assay: as above; conditions: one partner purified
T6 construct: Apolipoprotein L3, human; The homology model (not this construct) used isoform 1, NP_663615.1; source: COS7, transiently transfected; in lysate (immunoprecipitation) or in fixed, permeabilized cells (immunofluorescence); not shown: Myc, C-terminal, kept; FLAG, C-terminal, kept

[3] = molecular target: T7, flag-tagged ApoL1-NTD (D61–T172) (human, UniProt O14791); assay: SEC-MALS; XBridge BEH 200 Å column in PBS, 0.02% sodium azide, 1 ml/min; complex formed with a twofold molar excess of ApoL1-NTD (46.8 µM) over Fab7D6, 30 min at room temperature; components also run alone; conditions: both partners purified
T7 construct: Apolipoprotein L1, human, N-terminal domain residues D61-T172; E150 variant; the tag is said to be removed only for X-ray studies; source: Sf9 insect cells (baculovirus), purified (anti-flag resin, S75 size exclusion)

[4] = molecular target: T1, ApoL1-peptide (BH3-like peptide …); assay: crystal structure; Fab complexes formed with 1.5 molar excess of NTD and purified on Superdex-200 in 0.15 M NaCl, 25 mM Tris pH 8.0, about 10 mg/ml; Fab7D6 also crystallised with the synthetic peptide E152–H169; conditions: both partners purified
Bcl-w = molecular target: T2, Bcl-w; assay: SPR; Biacore S200; Bcl-2 family proteins immobilised on CM5 (amine coupling or His-Capture Kit); peptides and flag-tagged proteins as analytes, single-cycle kinetics, HBS-EP, 25 °C; 1:1 Langmuir model; absence of binding probed at 100 nM and 3 µM; conditions: both partners purified
Bfl-1 = molecular target: T3, Bfl-1; assay: as above; conditions: both partners purified
ApoL4-Myc = molecular target: T8, ApoL4-Myc (Homo sapiens, UniProt Q9BPW4); assay: immunostaining of cells or tissue; transiently transfected COS7 cells fixed (3% paraformaldehyde) and permeabilized (0.1% Triton-X-100); mouse anti-ApoL1 antibodies at 2 µg/ml in PBS, 1 h, room temperature; Alexa488-anti-mouse; co-stained with anti-myc; conditions: one partner purified
T8 construct: Apolipoprotein L4, human; The homology model (not this construct) used isoform 2, NP_663693; source: COS7, transiently transfected; in lysate (immunoprecipitation) or in fixed, permeabilized cells (immunofluorescence); not shown: Myc, C-terminal, kept

[5] = molecular target: T9, ApoL2-NTD (N2-T113), His tag removed (human, UniProt Q9BQE5); assay: crystal structure; Fab complexes formed with 1.5 molar excess of NTD and purified on Superdex-200 in 0.15 M NaCl, 25 mM Tris pH 8.0, about 10 mg/ml; Fab7D6 also crystallised with the synthetic peptide E152–H169; conditions: both partners purified
T9 construct: Apolipoprotein L2, human, N-terminal domain residues N2-T113, Genbank NP_112092.2; source: Sf9 insect cells (baculovirus), purified (Ni resin, S75, TEV digestion, S75)
T9 sequence (Q9BQE5 other isoform, or with tags, fused parts or gaps): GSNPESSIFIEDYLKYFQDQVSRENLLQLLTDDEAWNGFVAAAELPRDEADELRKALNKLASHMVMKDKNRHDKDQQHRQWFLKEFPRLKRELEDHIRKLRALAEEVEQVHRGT

T4 sequence (O14791 28-398): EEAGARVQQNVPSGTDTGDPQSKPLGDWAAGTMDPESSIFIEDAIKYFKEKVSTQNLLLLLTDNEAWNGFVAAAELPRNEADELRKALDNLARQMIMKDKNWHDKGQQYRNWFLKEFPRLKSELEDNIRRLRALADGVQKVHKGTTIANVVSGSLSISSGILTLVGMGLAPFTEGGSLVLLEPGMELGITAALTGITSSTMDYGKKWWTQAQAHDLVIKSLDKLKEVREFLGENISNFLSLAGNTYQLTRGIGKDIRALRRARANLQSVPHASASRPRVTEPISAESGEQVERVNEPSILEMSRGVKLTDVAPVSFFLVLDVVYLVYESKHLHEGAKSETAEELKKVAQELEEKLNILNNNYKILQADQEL
T6 sequence (O95236 whole entry, canonical isoform): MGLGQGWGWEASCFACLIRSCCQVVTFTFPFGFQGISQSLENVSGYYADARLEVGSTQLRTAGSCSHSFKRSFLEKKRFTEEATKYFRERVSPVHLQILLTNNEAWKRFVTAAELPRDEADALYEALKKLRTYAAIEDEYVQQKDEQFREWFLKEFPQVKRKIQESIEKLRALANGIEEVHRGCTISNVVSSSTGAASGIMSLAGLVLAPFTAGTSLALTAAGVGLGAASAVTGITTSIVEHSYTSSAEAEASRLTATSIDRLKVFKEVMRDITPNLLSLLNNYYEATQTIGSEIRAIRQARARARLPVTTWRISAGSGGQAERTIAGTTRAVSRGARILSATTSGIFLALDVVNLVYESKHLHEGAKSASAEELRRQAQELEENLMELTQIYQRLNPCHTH
T5 sequence (Q9BQE5 whole entry): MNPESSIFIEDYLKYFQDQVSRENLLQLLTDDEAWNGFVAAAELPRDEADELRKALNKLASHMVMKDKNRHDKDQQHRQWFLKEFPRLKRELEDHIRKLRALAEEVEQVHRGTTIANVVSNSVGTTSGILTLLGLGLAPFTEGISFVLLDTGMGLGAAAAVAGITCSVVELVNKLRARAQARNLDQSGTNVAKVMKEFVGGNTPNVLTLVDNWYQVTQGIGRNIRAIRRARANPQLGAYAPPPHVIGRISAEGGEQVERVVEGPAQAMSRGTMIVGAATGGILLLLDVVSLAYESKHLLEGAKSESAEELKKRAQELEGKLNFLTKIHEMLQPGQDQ
T7 sequence (O14791 61-172): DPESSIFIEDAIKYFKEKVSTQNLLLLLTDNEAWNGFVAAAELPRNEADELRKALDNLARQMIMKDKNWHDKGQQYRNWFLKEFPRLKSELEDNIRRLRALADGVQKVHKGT
T8 sequence (Q9BPW4 22-351): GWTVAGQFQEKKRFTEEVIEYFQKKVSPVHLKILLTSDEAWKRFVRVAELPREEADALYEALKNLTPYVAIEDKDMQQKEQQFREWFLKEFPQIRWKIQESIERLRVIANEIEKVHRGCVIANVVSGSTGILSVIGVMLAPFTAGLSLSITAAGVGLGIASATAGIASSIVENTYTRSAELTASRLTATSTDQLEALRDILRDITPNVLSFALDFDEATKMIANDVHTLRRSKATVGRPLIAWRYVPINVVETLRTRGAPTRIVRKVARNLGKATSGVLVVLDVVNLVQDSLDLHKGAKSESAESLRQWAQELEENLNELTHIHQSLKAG

Binder | Kd [1] | Kd (Bcl-w) | Kd (Bfl-1) | also measured
B1 | 1.56 nM |  |  | binding result [2]: binds; binding result (ApoL3-Myc-Flag): binds
B2 |  |  |  | stoichiometry N [3]: 1; binding result [4]: binds
B3 | 1.63 nM |  |  | 
B4 |  | 24.2 nM | 0.31 nM | 
B5 |  | 65.2 nM | 1430 nM | 
B6 |  | 23.1 nM | 18.8 nM | 
B7 | 0.86 nM |  |  | binding result (ApoL4-Myc): binds; binding result [2]: binds; binding result (ApoL3-Myc-Flag): binds
B8 |  |  |  | binding result [5]: binds
